What is called stoichiometry N is a count of units in the complex or per binding partner.

The source of these data is article PMC3144226, “Conformational Plasticity of proNGF” (PLoS ONE, 2011).

Data set [1] deals with recombinant murine proNGF (proNGF25, the short form of the precursor protein) (murine) (UniProt P01139). Put plainly: NMR diffusion (PFG-LED); diffusion compared with model proteins (IscS dimer, DHFR, NusA KH domain); phosphate buffer pH 7, 25°C.
Data set [2] deals with the molecule itself. Put plainly: 1D 1H NMR spectrum (linewidths); unlabelled NGF; phosphate buffer pH 7, 25°C.

Regarding “recombinant murine proNGF (proNGF25, the short form of the precursor protein) (from UniProt P01139 19-241) (natural protein)”, the stoichiometry N in data set [1] is 2.

B1: mature murine Nerve Growth Factor (NGF) (natural protein, UniProt P01139 122-241, looked up)
chain: SSTHPVFHMGEFSVCDSVSVWVGDKTTATDIKGKEVTVLAEVNINNSVFRQYFFETKCRASNPVESGCRGIDSKHWNSYCTTTHTFVKALTTDEKQAAWRFIRIDTACVCVLSRKATRRG
notes: mature NGF, murine, the cut product of proNGF25 after the furin site RSKR (118-121 of UniProt P01139); Trp21, Trp76, Trp99. numbers count on: the mature protein; The purified NGF was made by trypsin cleavage, the NGF of the furin experiment by furin cleavage in the tube; also called mature NGF; NGF moiety; source: in the furin experiment released from proNGF25 by furin in the NMR tube
With B1, the binding result in data set [2] is on record as “binds”.
